Bridge positions count the residues as written; N and C are the ends. Side chains are listed from the residue outwards. * marks the point of attachment. Biotin = O=C1N[C@H]2[C@H](CS[C@H]2CCCCC(=O)*)N1; PEG = not defined here

What all share (experiment): cell-based or functional assay
For assay [1], the target named is chemokine (C-X-C motif) receptor 3 (CXCR3) (human) (UniProt P49682).
The target in assay [2] is T1, chemokine (C-C motif) receptor 10 (CCR10) (human) (UniProt P46092).
T1 sequence (looked up): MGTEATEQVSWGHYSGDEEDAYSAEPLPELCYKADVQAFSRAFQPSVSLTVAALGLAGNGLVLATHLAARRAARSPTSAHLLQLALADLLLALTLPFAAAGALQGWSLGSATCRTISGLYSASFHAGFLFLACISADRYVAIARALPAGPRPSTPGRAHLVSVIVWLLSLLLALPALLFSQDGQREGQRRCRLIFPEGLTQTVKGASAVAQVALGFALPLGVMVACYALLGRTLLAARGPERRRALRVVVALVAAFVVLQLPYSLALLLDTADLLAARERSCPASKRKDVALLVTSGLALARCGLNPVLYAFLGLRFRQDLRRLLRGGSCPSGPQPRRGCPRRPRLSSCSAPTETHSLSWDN

Assay [3] addresses T2, chemokine (C-C motif) receptor 4 (CCR4) (human) (UniProt P51679).
T2 sequence (looked up): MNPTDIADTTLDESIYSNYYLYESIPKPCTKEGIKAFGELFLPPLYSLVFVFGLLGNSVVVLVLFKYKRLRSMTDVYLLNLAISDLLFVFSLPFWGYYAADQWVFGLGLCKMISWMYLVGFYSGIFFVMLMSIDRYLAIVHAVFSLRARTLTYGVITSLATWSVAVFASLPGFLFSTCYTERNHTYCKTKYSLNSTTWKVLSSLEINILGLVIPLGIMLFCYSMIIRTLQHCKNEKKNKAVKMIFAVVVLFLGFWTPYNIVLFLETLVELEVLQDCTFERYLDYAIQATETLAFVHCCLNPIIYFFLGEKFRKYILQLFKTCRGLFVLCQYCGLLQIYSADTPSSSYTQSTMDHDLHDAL

Chain of chemokine (C-X-C motif) receptor 3 (CXCR3) (human) (P49682 whole entry): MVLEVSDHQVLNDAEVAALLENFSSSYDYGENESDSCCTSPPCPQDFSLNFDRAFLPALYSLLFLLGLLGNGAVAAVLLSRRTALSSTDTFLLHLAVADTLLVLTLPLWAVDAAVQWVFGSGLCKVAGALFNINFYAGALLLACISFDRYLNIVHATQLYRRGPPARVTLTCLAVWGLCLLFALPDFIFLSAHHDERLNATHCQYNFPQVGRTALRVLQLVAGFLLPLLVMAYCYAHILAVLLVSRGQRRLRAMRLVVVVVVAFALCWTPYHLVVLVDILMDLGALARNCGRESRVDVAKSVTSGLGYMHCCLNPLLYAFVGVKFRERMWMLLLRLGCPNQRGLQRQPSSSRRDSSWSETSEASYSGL

B1: biotinITAC (CXCL11): ITAC derivatised with Biotin at an additional C-terminal Lysine after a PEG spacer (ligand)
chain: FPMFKRGRCLCIGPGVKAVKVADIEKASIMYPSNNCDKIEVIITLKENKGQRCLNPKSKQARLIIKKVERKNFX
modifications: X74 = PEG-K(Biotin)
The molecule B1 returned an EC50 (agonist activity, Aequorin assay) in assay [1] of 15.7 nM.

B2: recombinant native CTAC (ligand, UniProt Q9Y4X3 25-112, looked up)
chain: FLLPPSTACCTQLYRKPLSDKLLRKVIQVELQEADGDCHLQAFVLHLAQRSICIHPQNPSLSQWFEHQERKLHGTLPKLNFGMLRKMG
B2 came in with an EC50 (agonist activity, Aequorin assay) in assay [2] of 33.5 nM.

B3: recombinant native ITAC (ligand, UniProt O14625 22-94, looked up)
chain: FPMFKRGRCLCIGPGVKAVKVADIEKASIMYPSNNCDKIEVIITLKENKGQRCLNPKSKQARLIIKKVERKNF
Regarding B3, the EC50 (agonist activity, Aequorin assay) in assay [1] is 0.7 nM.

B4: biotinCTAC (CCL27): CTAC derivatised at Lys(87) with PEG-Biotin (ligand)
chain: FLLPPSTACCTQLYRKPLSDKLLRKVIQVELQEADGDCHLQAFVLHLAQRSICIHPQNPSLSQWFEHQERKLHGTLPKLNFGMLRKK([PEG-Biotin])G-OH
modifications: disulfide 10-53, 9-38; reading uncertain
Molecule B4 yielded an EC50 (agonist activity, Aequorin assay) in assay [2] of 49.4 nM.

B5: recombinant native MDC (ligand, UniProt O00626 25-93, looked up)
chain: GPYGANMEDSVCCRDYVRYRLPLRVVKHFYWTSDSCPRPGVVLLTFRDKEICADPRVPWVKMILNKLSQ
In assay [3], B5 yielded an EC50 (agonist activity, Aequorin assay) of 3.6 nM.

The values are drawn from patent US20140175018A1.
